Data published in the supplement of paper PMC9170038.

Key:
MS2 coat protein [1] = assay: apparent KD of MS2 coat protein, switch ON state; designed switch direction (-1 OFF switch, 1 ON switch): 1; higher = weaker reporter binding; details: FMN input: 0 or 200 uM; Eterna round: R93 (includes R88 designs)
Method in brief: (§1)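 Illumina sequencing clusters served as templates for on-chip transcription of the designed RNA switches. SNAP-549-labelled MS2 coat protein was then titrated in twofold steps from 0.7 or 1.5 nM to 3 µM, allowing 0.8–1.5 h per step at first and 10–20 min per step later. The buffer held 100 mM Tris-HCl pH 7.5, 80 mM KCl and 4 mM MgCl2, without or with constant ligand. Apparent KD is the median per design of normalised cluster binding-curve fits.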

MS2 coat protein [2] = assay: apparent KD of MS2 coat protein, switch OFF state (with FMN for OFF switches, without FMN for ON switches); designed switch direction (-1 OFF switch, 1 ON switch): 1; higher = weaker reporter binding; details: FMN input: 0 or 200 uM; Eterna round: R93 (includes R88 designs)
Method in brief: as §1

Sequence | apparent KD of MS2 coat protein (MS2 coat protein [1]) [nM] | apparent KD of MS2 coat protein (MS2 coat protein [2]) [nM]
AAACCACAUGAGGAUCACCCAUGUGAAAAAAAUACAGGAUAUGGAAACACGAAAGUGAAACCAGAAGGGUGAAAAA [77%, Mat - Mod of Eli, 28] | 13.4 | 16.6
AGGAAACAUGAGGAUCACCCAUGUAAAAAUAUGGGAGGAUAUACUAGAAGAAACAAAAUAGUAGAAGGCCUAAAAA [75%, Ex sub1, 26] | 17.4 | 47.4
AAAAAAUAAAAAAAGGAUAUAAAAGGUAGUACAUGAGGAUCACCCAUGUUCUACCAAAAAAUAAAAAAGAAGGAAAAAUAAAAAA [SS2: MS2 15] | 17.6 | 16.4
AGAAAUAAAUGAGAGGAUAUCCAAAAGAAAACAUGAGGAUCACCCAUGUAAAAGAAAAUAAAAUGGGAGAAGGCUCAAAAUAAAG [80%, More Helter Skelter 2] | 23.5 | 58.5
AGGAAACAUGAGGAUCACCCAUGUAAAAAUAUGGGAGGAUAUACGAAGAAAAAAAAAAAAGUAGAAGGCCUAAAAG [Garnet 11] | 90.7 | 345
AAAUAAAGGACUGAGGAUAUACCACAUGAAACAUGAGGAUCACCCAUGUUAAAAAACAGAGGGUGGUAGAAGGCAGUCCACAAAC [Same State 2.5e ( so lets mod hyphema)] | 17.9 | 15.8
UCAAAACAUGAGGAUCACCCAUGUAGCCUAAAGCGAGGAUAUGGGUUUCUUUAAAGAGUACCAGAAGGCGCCAAAA [Enenala] | 27.9 | 91.1
GACAAACAUGAGGAUCACCCAUGUAGACAUAUGGGAGGAUAUACACAGACGAAAGUCACAGUAGAAGGCCUACAAG [77%, Mat - Mod of Eli - With 5 more C's] | 26.9 | 82.4
AAAGAAGAAAGUCAGGAUAUGGAUGGGUAAACAUGAGGAUCACCCAUGUAUAAGAAAGAAAGAAACCAGAAGGGACAAAAGAAAA [Artaxerxes III] | 34.6 | 135
AAUACACAUGGUCAGGAUAUCGCAGCUAGGACAUGAGGAUCACCCAUGUCGCACGUAACCGUAACCGAGAAGGGACAGGGUGACC [JR_SS002_Sub409] | 36.9 | 15.2
CAUCAUGCGCCUAAGGAUAUGUCUCACAAGACAUGAGGAUCACCCAUGUAGAACAAAUAAGUGAUGCAGAAGGUGGAGCGCAUGC [Edcequed] | 18.9 | 137
GAAAAACAUGAGGAUCACCCAUGUAGAAAUAUGGGAGGAUAUACAAAGACGAGAGUCAAAGUAGAAGGCCUAAAAG [Mat - Same State 1 - Eli mod - D9] | 28.4 | 86.7
AACAAUCUAUCUGAGGAUAUCAUGUCAAAGACAUGAGGAUCACCCAUGUAGCAGGAAACUGCUUAUGAGAAGGCAGAUAGAUUGA [SS2: 1114] | 69.4 | 450
AAAAAACAUGAGGAUCACCCAUGUAAAAAAAUGGGAGGAUAUACAAAGACGAAAGUCAAAGUAGAAGGCCUGAAAA [same state 4] | 29.8 | 105
AAUAAACAUGAGGAUCACCCAUGUUUUAAUAGUUGAGGAUAUAAGGGUGAAAAUAGCAUAUUAGAAGGCGAGUGUA [SameState1 Malc#14] | 32.7 | 31.7
AACAAUCUAUCUGAGGAUAUCAUGUCAAAGACAUGAGGAUCACCCAUGUGCAGGAAAACUGCUCAUGAGAAGGCAGAUAGAUUGA [SS2: 1110] | 464 | 167
AAAAGACAUGAGGAUCACCCAUGUCAAAACGUAGGAGGAUAUGUAUGGAAAACAUGCUGUACAGAAGGCCUGUGUC [SS1 - 28] | 14.2 | 17
CGUAAACAUGAGGAUCACCCAUGUCAAUAUGAUCAAGGAUAUGGGUUCCGAAGUGGAACACCAGAAGGUGAAUAGU [Inrea] | 377 | 580
AAAAAACAUGAGGAUCACCCAUGUCAAAAGACGUGAGGAUAUGUACAGACUUCGGUCUGUACAGAAGGCACGUAAA [SS1 - 1039] | 15.7 | 25.7
GUCCAACAUGAGGAUCACCCAUGUGCAUGACACUGAGGAUAUGGGACUAAAGGUGCUGGACCAGAAGGCAGAAGAA [Diatquorbi] | 48.3 | 94.9
AAGAAACAUGAGGAUCACCCAUGUAGAAAUAUGGGAGGAUAUACAAGGACGUAAGUCAAGGUAGAAGGCCUAAGAA [Mat - Same State 1 - Meechl mod - D135] | 26 | 97
AUGAAGGAGAGAGAGGAUAUCCAAAGGGAAACAUGAGGAUCACCCAUGUAGAAGGUAGGAAAUUGGGAGAAGGCUCAAGAGAGAG [salish99-ss2-111] | 25.4 | 26.9

Sequence | apparent KD of MS2 coat protein (MS2 coat protein [1]) [nM] | apparent KD of MS2 coat protein (MS2 coat protein [2]) [nM]
AAAAGACAUGAGGAUCACCCAUGUAAAGACGUAGGAGGAUAUGUCGUGAAAAAAGACUUGGCAGAAGGCCUGUGUC [SS1 - 40] | 21.4 | 26.6
AGGUAACAUGAGGAUCACCCAUGUACCGAUAAUGCAGGAUAUCGACACGAAAAUACGUGUCGAGAAGGGCAUGAAA [SS1 MT 23] | 14.3 | 13.5
AACAACAAUAUGAAGGAUAUCCACAACAAGACAUGAGGAUCACCCAUGUAAACUUAGAACAUACAGGAGAAGGUCAAGGGUGAAU [JR_SS002_Sub1204] | 221 | 63.2
AAUAUACAUGAGGAUCACCCAUGUGAAAAUAUGGGAGGAUAUCGGAAAAAAAAAAAAAAACGAGAAGGCCCAAAAA [SS! 1 MT 13] | 20.8 | 119
AACUAACAUGAGGAUCACCCAUGUAUUCAAACAUGAGGAUAUAUAACACAUCAUCGACGGAUAGAAGGCAUAAAUA [JR_SS001_Sub1206] | 92 | 86.6
GAAAAACAUGAGGAUCACCCAUGUGUAAACAAGGGAGGAUAUACAAAGACGUAAGUCAAAGUAGAAGGCCUAAAAG [Garnet 38] | 25.6 | 47.1
AAAUAGUGCCUGGAGGAUAUGUCGCAUGACACAUGAGGAUCACCCAUGUGGUAACACAGAGGGUGGCAGAAGGCUGGGUGCAAAC [Mod 4 of Pariah 6 (Round1) by Hyphema] | 27.4 | 260
AGAAAACAUGAGGAUCACCCAUGUUAGUGUCAUUAAGGAUAUAGGCUUAAGAAUCUGAGACUAGAAGGUGGUGCGC [Orbeus] | 21.9 | 30.8
AGAAAUAAAGGAGAGGAUAUCCAAAAGAAAACAUGAGGAUCACCCAUGUAAAAGAAAAUAAAAUGGGAGAAGGCUUCAAAUAAGA [Starry modified V4] | 52.3 | 46.4
AGGAGACAUGAGGAUCACCCAUGUGAGAAGAGGCGAGGAUAUCGAAAGAAAGAAGAGAAACGAGAAGGCGCGAGGG [salish99-SS1-027] | 26.9 | 39.2
UAGAGACAUGAGGAUCACCCAUGUAGGAUUAUGGGAGGAUAUACAAAGACGAGAGUCAGAGUAGAAGGCCUAGGAA [salish99-ss1-133(!)] | 24.9 | 74.6
UCCACCAUGGUACAGGAUAUGUCAGACCCGACAUGAGGAUCACCCAUGUGCGGUUCUUUUCCAACGCAGAAGGGUGCAUAGGUGG [Xevetia] | 17.1 | 43.9
AAAAGACAUGAGGAUCACCCAUGUGAAAACGUAGGAGGAUAUGUCGUGAAAAAAGACUUGGCAGAAGGCCUGUGUC [SS1 - 43] | 47 | 90.7
CGGAGACAUGAGGAUCACCCAUGUGAGAAGAGGCGAGGAUAUCGAAAGAAAGAAGAGAAAUGAGAAGGCGCGAGCC [salish99-SS1-081] | 36.2 | 39
GACUGACAUGAGGAUCACCCAUGUAUUCAAACAUGAGGAUAUAUAACACGUCAUCGACGGAUAGAAGGCAUAGAUG [JR_SS001_Sub1209] | 117 | 162
AGAAAACAUGAGGAUCACCCAUGUAGAAAUAUGGGAGGAUAUACGAAGACGAAAGUCAAAGUAGAAGGCCUAAAGA [Mat - Same State 1 - Eli mod - D101] | 23.6 | 77.6
AUGAAAGUAACACAGGAUAUCCAGGAUACAACAUGAGGAUCACCCAUGUACAUACGAACGUAUAAGGAGAAGGGUGGAUGAUCUUC [ss2-2] | 50.7 | 59.3
UAUAAACAUGAGGAUCACCCAUGUAGAAAUAUGGGAGGAUAUACAAAGACGAAAGUCAAAGUAGAAGGCCUAAUAU [Mat - Same State 1 - Mod - D155] | 18.9 | 55.3
UGUUCGAGUAGUGAGGAUAUUCAUGGGCCCACAUGAGGAUCACCCAUGUAAUGGACCGGGCCGAAGGAGAAGGCGCGUAAAAUUA [Atceve] | 38.2 | 140
GUGGCGCAGGUACAGGAUAUGUUUCUCGUAACAUGAGGAUCACCCAUGUACCUAUGAGAUUAAAUGCAGAAGGGUGCACGCCACG [Inedor] | 41.1 | 154
AAAAGACAUGAGGAUCACCCAUGUCAAAAGACAUGAGGAUAUGUACAGACUUCGGUCUGUACAGAAGGCAUGUAAA [SS1 - 1069] | 16.3 | 21.6
AGAAAUAAAAGAGAGGAUAUCUCAAAGAAAACAUGAGGAUCACCCAUGUAAAAGAAAAUAAAAUGGGAGAAGGCUCAUAAUAAAG [JL Skelter Mod 5 In the Red] | 54.3 | 133
